Test results from the supplement of paper PMC12855868.

B1: library; numbered along this chain (parent)
chain: MAAAGGARLLRAASAVLGGPAGRWLHHAGSRAGSSGLLRNRGPGGSAEASRSLSVSARARSSSEDKITVHFINRDGETLTTKGKVGDSLLDVVVENNLDIDGFGACEGTLACSTCHLIFEDHIYEKLDAITDEENDMLDLAYGLTDRSRLGCQICLTKSMDNMTVRVPETVADARQSIDVGKTS

Variants of: B1
Assay: scaled log2 fold change in cell abundance, elesclomol vs control (0 = silent mean, 1 = nonsense mean) (scaled log2 ratio); higher = higher viability under elesclomol (loss of FDX1 cuproptosis function)
Conditions: glucose 10 mM
[1] = with ABC1 FDX1 KO, elesclomol 5 nM, 14 days
[2] = with HEK293T FDX1 KO, elesclomol 40 nM, 11 days
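Also: variant abundance is its share of total variant reads in each endpoint sample, from next-generation sequencing of the integrated ORF PCR-amplified out of genomic DNA.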

Variant | scaled log2 fold change [1] | scaled log2 fold change [2]
V165T | 0.13 | -0.566
V165W | 0.852 | 0.405
V165Y | 1.03 | 1.38
V165S | 0.00333 | 0.568
V167G | 0.269 | 0.997
V167R | 0.264 | -0.286
V167K | 0.318 | 0.00856
V167H | 0.217 | 1.13
V167P | 0.251 | -0.184
V167W | 0.155 | -0.0986
V167T | 0.214 | 0.998
V167D | 0.489 | 0.995
V167E | 0.136 | 0.156
V167Q | 0.218 | 1.05
V167S | 0.152 | 0.0174
V167L | -0.207 | -0.904
V167N | 0.111 | -0.228
V167C | -0.124 | 0.517
V167M | 0.222 | -0.0856
V167Y | -0.0283 | 0.556
V167I | -0.468 | 0.138
V167A | -0.622 | 0.856
V167F | 0.518 | 
V171M | 0.452 | 0.0122

Variant | scaled log2 fold change [1] | scaled log2 fold change [2]
V171L | 0.231 | 0.229
V171D | -0.592 | -0.239
V171I | -0.139 | 0.238
V171S | -0.0546 | 0.136
V171Y | -0.342 | -0.405
V171E | 0.182 | -0.192
V171Q | -0.00995 | 0.876
V171R | -0.31 | -0.328
V171W | 0.0569 | 0.292
V171F | 0.0552 | -0.419
V171N | -0.524 | 0.216
V171A | -0.586 | 0.229
V171K | 4.83e-05 | -0.343
V171C | -0.178 | -0.0893
V171P | 0.142 | 0.0269
V171H | -0.198 | -0.163
V171T | -0.214 | -0.343
T170D | 0.239 | 
T170W | -0.0505 | 0.993
T170S | -0.088 | -0.432
T170N | -0.0752 | 0.953
T170F | 0.262 | 0.826
T170A | -0.0897 | -0.0909
T170M | -0.185 | 

Variant | scaled log2 fold change [1] | scaled log2 fold change [2]
T170K | 0.0703 | 0.727
T170H | -0.102 | -1.19
T170I | -0.092 | 0.126
T170G | 0.233 | -0.241
T170R | -0.159 | 
T170Q | 0.241 | -0.893
T170E | 0.0373 | -0.644
T170L | -0.0824 | -0.244
T170C | 0.268 | -0.365
T170V | -0.0936 | -0.713
T170P | -0.219 | 0.16
T170Y | 0.0553 | -0.221
I178E | 0.2 | -0.114
I178H | -0.366 | 0.244
I178G | -0.381 | 
I178F | -0.214 | 0.801
I178D | 0.156 | 1.21
I178C | 0.576 | -0.695
I178A | -0.325 | 0.476
I178K | 0.421 | 1.24
S177R | -0.0538 | -0.798
S177Q | 0.143 | -0.314
S177T | -0.0709 | -0.492
S177F | -0.0241 | -0.0862

Variant | scaled log2 fold change [1] | scaled log2 fold change [2]
S177A | -0.0907 | 
S177N | 0.00267 | 0.0839
S177P | -0.213 | -0.486
S177L | -0.34 | -0.529
S177G | -0.315 | 0.0748
S177Y | -1.05 | 0.126
S177W | 0.0273 | 0.264
S177C | -0.309 | 
S177I | -0.08 | 0.665
S177M | -0.566 | 0.0434
S177E | -0.0815 | -0.019
S177H | 0.139 | -0.562
S177V | -0.287 | 0.49
S177K | 0.281 | -0.228
S177D | -1.44 | -0.675
A172N | -0.267 | -0.223
A172W | 0.0817 | 0.744
A172R | -0.163 | 0.124
A172E | 0.236 | 0.926
A172Y | 0.17 | 
A172C | -0.253 | -0.168
A172H | -0.391 | 0.0671
A172T | -0.0186 | 1.1
A172P | -0.333 | 0.355

Variant | scaled log2 fold change [1] | scaled log2 fold change [2]
A172S | 0.42 | 0.922
A172M | -0.557 | -0.421
A172Q | 0.194 | 0.591
A172L | -0.0445 | -0.675
A172G | -0.0465 | 0.05
A172D | 0.0896 | 1.11
A172K | 0.212 | 
A172I | 0.216 | 1.09
A172F | -0.0712 | 0.241
A172V | 0.337 | -0.531
P168W | 0.463 | 0.286
P168E | 0.408 | -0.105
P168L | 0.485 | 0.478
P168M | 0.157 | -0.366
P168T | 0.449 | -0.142
P168N | 0.157 | -0.31
P168C | 0.163 | 0.254
P168A | 0.158 | -0.0417
P168F | 0.153 | 0.798
P168K | 0.508 | -0.335
P168R | 0.453 | 0.117
P168H | 0.377 | 0.136
P168I | -0.0742 | 0.61
P168D | 0.403 | 1.03

Variant | scaled log2 fold change [1] | scaled log2 fold change [2]
P168V | 0.143 | -0.0343
P168Q | 0.259 | 0.667
P168Y | 0.394 | -0.173
P168S | 0.106 | 0.443
E169T | -0.402 | -0.135
E169V | -0.251 | 0.342
E169N | -0.234 | 0.306
E169I | -0.202 | -0.174
E169Q | -0.166 | 0.849
E169A | 0.277 | -0.0328
E169D | -0.464 | 1.13
E169G | -1.32 | 0.409
E169M | -0.846 | 0.0592
E169P | -0.343 | 0.322
E169H | 0.197 | 0.526
E169C | -0.223 | -0.0591
E169S | -1.11 | -0.0914
E169Y | -0.0627 | -0.484
E169F | -0.455 | 0.0831
E169R | 0.0391 | 0.411
E169K | -0.0829 | 1.04
E169L | -0.227 | -0.347
E169W | -0.134 | 0.73
R166D | 0.375 | -0.407

Variant | scaled log2 fold change [1] | scaled log2 fold change [2]
R166G | 0.266 | -0.344
R166N | -0.198 | 0.918
R166Q | -0.338 | -0.083
R166L | -0.509 | 0.328
R166F | -0.233 | 0.799
R166S | 0.275 | -0.368
R166M | 0.144 | -0.000209
R166Y | 0.394 | 1.92
R166T | 0.529 | -0.473
R166H | -0.236 | 
R166P | 1.06 | 1.77
R166E | -0.677 | -0.967
R166V | -0.116 | 0.509
R166I | -0.0924 | -0.203
R166A | 0.373 | 0.284
R166W | -0.00581 | 0.748
R166C | -0.501 | -0.211
R166K | -0.502 | -0.393
A174G | -0.324 | 0.643
A174Q | -0.051 | 
A174C | -0.397 | 
A174V | 0.037 | -0.188
A174D | -0.995 | 0.361
A174W | 0.23 | -0.353

Variant | scaled log2 fold change [1] | scaled log2 fold change [2]
A174P | -0.155 | -0.277
A174M | 0.0375 | -0.275
A174F | -1.02 | -1.07
A174H | 0.267 | -0.0112
A174I | 0.163 | 0.249
A174L | 0.255 | 0.483
A174K | -0.0242 | 0.0836
A174E | -0.219 | 0.0347
A174S | -0.111 | -0.662
A174T | 0.187 | -0.546
A174N | -0.0564 | 
A174R | -0.108 | 0.908
A174Y | 0.11 | 0.358
Q176V | 0.192 | -0.626
Q176N | -0.0287 | 1.21
Q176P | 0.375 | 0.159
Q176L | -0.0736 | -0.65
Q176M | 0.291 | 
Q176G | -0.184 | -0.11
Q176W | -0.225 | 0.328
Q176K | 0.426 | 0.463
Q176F | -0.29 | 0.182
Q176R | -0.155 | 0.492
Q176D | -0.118 | -0.177

Variant | scaled log2 fold change [1] | scaled log2 fold change [2]
Q176Y | 0.0438 | 1.3
Q176H | -0.0199 | 0.909
Q176A | 0.239 | 0.8
Q176T | -0.0483 | -0.279
Q176S | -0.0172 | -0.0154
Q176E | 0.157 | -0.685
Q176I | 0.324 | -0.471
Q176C | 0.128 | -0.158
D173S | 0.248 | -0.827
D173V | 0.418 | -0.196
D173W | -0.0293 | 
D173Y | 0.241 | -0.0391
D173C | -0.031 | 0.0714
D173H | 0.000185 | -0.579
D173M | -0.417 | 0.0547
D173E | 0.188 | 1.27
D173A | 0.245 | 0.105
D173F | 0.306 | -0.0815
D173R | 0.198 | 0.613
D173K | 0.645 | 0.0902
D173Q | 0.224 | 0.251
D173N | 0.304 | -0.47
D173G | 0.473 | -0.138
D173L | -0.299 | 0.205

Variant | scaled log2 fold change [1] | scaled log2 fold change [2]
D173P | 0.0487 | 0.601
D173T | -0.0187 | 
R175I | -0.385 | 0.157
R175S | 0.343 | 0.224
R175P | -0.117 | 0.128
R175Q | -1.39 | -0.894
R175H | 0.468 | -0.908
R175M | -0.223 | 0.0945
R175A | 0.455 | -0.138
R175W | 0.307 | -0.0023
R175Y | 0.225 | -0.118
R175N | 0.0623 | 0.495
R175C | -0.0756 | 0.45
R175L | 0.518 | 
R175T | 0.48 | 0.313
R175K | 0.138 | -0.161
R175F | 0.208 | 0.0272
R175V | 0.472 | -0.0442
R175D | 0.148 | 1.25
R175G | 0.394 | 
R175E | 0.417 | 0.643
